Reference: patent CN111138529A (INST MILITARY MEDICINE ACADEMY MILITARY SCIENCES PLA, dated 2020)

Biological target: T1, RESTV GP (RESTV, UniProt Q66799 34-651)
T1 sequence: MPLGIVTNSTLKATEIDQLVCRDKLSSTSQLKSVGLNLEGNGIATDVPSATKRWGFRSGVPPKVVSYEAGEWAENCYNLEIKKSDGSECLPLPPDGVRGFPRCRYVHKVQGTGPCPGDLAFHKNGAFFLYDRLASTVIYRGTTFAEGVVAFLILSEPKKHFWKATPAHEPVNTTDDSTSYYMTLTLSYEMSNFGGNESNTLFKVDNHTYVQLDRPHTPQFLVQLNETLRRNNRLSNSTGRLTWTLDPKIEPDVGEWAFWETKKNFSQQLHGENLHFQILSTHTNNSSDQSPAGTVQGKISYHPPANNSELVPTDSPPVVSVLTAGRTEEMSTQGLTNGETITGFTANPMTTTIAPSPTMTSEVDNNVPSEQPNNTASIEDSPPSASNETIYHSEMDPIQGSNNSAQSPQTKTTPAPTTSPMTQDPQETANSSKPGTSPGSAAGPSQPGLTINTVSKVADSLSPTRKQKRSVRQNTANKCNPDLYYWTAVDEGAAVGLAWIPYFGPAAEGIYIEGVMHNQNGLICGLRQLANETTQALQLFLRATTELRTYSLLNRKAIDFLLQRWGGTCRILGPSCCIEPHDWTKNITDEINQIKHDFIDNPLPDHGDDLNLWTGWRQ
Assay: ELISA, coated GP 1μg/mL

B1: 单克隆抗体5E1 (antibody, V domains shown)
VH: EVQLVESGGGVVQSGRSLRLSCAASGFTFSNYGMHWVRRAPGKGLEWVAVISYDGSIKYYADAVQGRFTISRDNSKNTLYLQMNSVRAEDRAVYYCAKGSRVVATLNFFDLWGRGTLVTVSS
VL: AIRMTQSPSSLSASVGDRVTITCRASQDIRNFLAWYQQKPEKAPKLLVYTASRRESGVPPRLSGSGSGTEYTLTISSLQPEDFATYYCQQYYSTPPTFGQGTKVDIKT
**Q.** Does B1 bind?
**A.** no binding
